Results published in patent publication US7135457.

T1: human D2H transporter receptor domain, amino acid residues 387-685, His-tag fusion protein (human), Q07837
T1 chain: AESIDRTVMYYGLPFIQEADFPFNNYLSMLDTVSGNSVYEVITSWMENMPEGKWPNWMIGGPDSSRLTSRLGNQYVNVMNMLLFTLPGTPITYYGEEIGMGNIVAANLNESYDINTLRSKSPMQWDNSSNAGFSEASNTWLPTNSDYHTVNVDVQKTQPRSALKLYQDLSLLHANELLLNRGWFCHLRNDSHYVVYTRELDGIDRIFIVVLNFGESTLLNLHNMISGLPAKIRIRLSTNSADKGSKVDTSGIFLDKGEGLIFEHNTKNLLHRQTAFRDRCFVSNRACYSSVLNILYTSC


Legend:
[1] = target: T1, human D2H transporter receptor domain, …; assay: phage ELISA, coated D2H domain
[2] = target: T1, human D2H transporter receptor domain, …; assay: phage ELISA, OD on D2H over OD on BSA
[3] = target: T2, human sucrase-isomaltase complex (hSI) receptor domain, amino acid residues 272-667, His-tag fusion protein (human), P14410; assay: phage ELISA, OD on hSI over OD on BSA
T2 sequence (P14410 272-667, one chain of several): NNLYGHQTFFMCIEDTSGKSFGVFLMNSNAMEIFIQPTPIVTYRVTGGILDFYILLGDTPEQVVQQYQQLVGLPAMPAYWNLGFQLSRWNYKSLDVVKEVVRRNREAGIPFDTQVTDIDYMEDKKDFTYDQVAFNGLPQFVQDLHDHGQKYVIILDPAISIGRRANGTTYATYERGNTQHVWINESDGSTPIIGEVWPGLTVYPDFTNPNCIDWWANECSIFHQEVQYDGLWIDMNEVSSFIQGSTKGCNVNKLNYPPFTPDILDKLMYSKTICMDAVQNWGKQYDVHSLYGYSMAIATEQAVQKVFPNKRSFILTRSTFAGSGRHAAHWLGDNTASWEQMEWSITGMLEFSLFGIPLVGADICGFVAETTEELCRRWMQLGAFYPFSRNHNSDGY

[4] = target: T2, human sucrase-isomaltase complex (hSI) …; assay: phage ELISA, coated hSI domain

Row | Binder | OD [1] | D2H/BSA [2] | hSI/BSA [3] | OD [4]
1 | SWSSWNWSSKTTRLGDRATREGCGPSQSDGCPYNGRLTTVKPRT (modifications not checked) [phage DCX36] | 0.293 OD 650 nm | 5 |  | 
2 | SPRSFWPVVSRHESFGISNYLGCGYRTCISGTMTKSSPIYPRHS (modifications not checked) [phage S21] |  |  | 9 | 0.845 OD 650 nm
